Assay results published in patent publication US20190085093A1 (SEOUL NATIONAL UNIVERSITY R AND DB FOUNDATION, published 2019).
Ends that are not written are not given here.

T1: FCHo1-C-3×DDK (full-length wild-type FCHo1 with C-terminally fused 3×FLAG tag) (human, UniProt O14526 1-889)
T1 construct: Expressed in A549 cells and pulled down with anti-FLAG gel; also called FCHo1-FLAG; wt FCHo1; not shown: C-terminal 3×DDK (3×FLAG) tag of the pCMV6-C-3×DDK vector
T1 sequence (looked up): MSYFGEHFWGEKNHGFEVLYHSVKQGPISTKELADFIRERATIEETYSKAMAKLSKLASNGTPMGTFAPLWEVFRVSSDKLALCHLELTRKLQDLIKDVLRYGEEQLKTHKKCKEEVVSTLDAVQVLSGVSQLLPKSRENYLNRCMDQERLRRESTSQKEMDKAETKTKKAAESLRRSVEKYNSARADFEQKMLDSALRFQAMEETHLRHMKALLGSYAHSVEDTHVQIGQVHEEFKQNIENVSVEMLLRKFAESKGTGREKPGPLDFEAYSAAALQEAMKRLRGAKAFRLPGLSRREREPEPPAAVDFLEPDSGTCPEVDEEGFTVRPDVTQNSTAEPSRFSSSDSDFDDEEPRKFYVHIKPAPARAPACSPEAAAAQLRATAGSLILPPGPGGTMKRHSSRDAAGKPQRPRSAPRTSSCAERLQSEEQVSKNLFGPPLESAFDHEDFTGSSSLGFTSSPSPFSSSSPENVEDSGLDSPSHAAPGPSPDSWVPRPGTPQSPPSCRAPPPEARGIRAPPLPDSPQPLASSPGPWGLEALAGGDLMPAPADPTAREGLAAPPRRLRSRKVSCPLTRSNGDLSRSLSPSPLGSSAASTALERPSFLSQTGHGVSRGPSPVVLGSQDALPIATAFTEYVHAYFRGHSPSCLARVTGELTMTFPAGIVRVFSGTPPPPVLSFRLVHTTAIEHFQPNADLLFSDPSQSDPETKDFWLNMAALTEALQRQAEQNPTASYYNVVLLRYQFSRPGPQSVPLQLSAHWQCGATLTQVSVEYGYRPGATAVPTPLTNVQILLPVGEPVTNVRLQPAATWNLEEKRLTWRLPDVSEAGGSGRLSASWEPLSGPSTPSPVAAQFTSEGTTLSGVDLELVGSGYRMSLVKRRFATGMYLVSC

B1: peptide 562-571 of FCHo1 (RRLRSRKVSC), biotin-conjugated (peptide)
peptide: RRLRSRKVSC
modifications: also: biotin conjugated, position not given here
notes: Attached to a streptavidin plate by its biotin
B2: C-terminal (CT) fragment of FCHo1 cleaved at R563 (other, human, UniProt O14526 564-889, looked up)
chain: LRSRKVSCPLTRSNGDLSRSLSPSPLGSSAASTALERPSFLSQTGHGVSRGPSPVVLGSQDALPIATAFTEYVHAYFRGHSPSCLARVTGELTMTFPAGIVRVFSGTPPPPVLSFRLVHTTAIEHFQPNADLLFSDPSQSDPETKDFWLNMAALTEALQRQAEQNPTASYYNVVLLRYQFSRPGPQSVPLQLSAHWQCGATLTQVSVEYGYRPGATAVPTPLTNVQILLPVGEPVTNVRLQPAATWNLEEKRLTWRLPDVSEAGGSGRLSASWEPLSGPSTPSPVAAQFTSEGTTLSGVDLELVGSGYRMSLVKRRFATGMYLVSC
notes: Fragment in cells, seen by immunofluorescence and PLA with the α584-804 antibody
B3: CT-fragment (564-889aa) of FCHo1-HA (other, human, UniProt O14526 564-889, looked up)
chain: B2 chain
notes: Cleavage product of FCHo1-HA in the cells, seen on the blot of the co-IP; not shown: C-terminal 3×HA tag
B4: peptide 560-571 of FCHo1 (PPRRLRSRKVSC), biotin-conjugated (peptide)
peptide: PPRRLRSRKVSC
modifications: also: biotin conjugated, position not given here
notes: as for B1

What was measured:
Akt1 [1] = molecular target: T2, Akt1 (UniProt P31749 1-480); assay: biotin peptide on streptavidin plate, cell lysate, detection with Akt1 antibody
T2 construct: Endogenous protein detected with an Akt1 antibody (LF-MA0245); also called endogenous Akt1
T2 sequence (P31749 whole entry): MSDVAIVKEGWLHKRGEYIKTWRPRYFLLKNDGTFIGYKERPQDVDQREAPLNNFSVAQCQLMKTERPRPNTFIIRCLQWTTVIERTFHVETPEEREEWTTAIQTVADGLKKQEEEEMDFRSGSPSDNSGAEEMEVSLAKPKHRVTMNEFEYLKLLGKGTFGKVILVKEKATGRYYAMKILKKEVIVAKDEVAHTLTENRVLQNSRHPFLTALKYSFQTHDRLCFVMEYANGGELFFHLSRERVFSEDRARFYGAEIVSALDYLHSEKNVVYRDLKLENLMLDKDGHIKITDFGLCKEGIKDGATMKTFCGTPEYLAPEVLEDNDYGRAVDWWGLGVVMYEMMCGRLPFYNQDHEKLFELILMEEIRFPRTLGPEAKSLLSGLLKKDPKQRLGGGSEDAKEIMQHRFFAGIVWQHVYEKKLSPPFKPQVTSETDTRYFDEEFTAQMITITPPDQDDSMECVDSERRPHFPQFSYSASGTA
From the text: To confirm the binding affinity between Akt1 and Akt1 motif-containing FCHo1 amino acid sequence-derived peptides, biotin was conjugated to peptides to complete the synthetization. The peptides were reacted and attached to on the streptavidin-attached plate. After treating with the cell lysates, the binding affinity of the peptide and Akt1 was confirmed by the Akt1 antibody. The experiment process and its result of confirming in vitro binding affinity of Akt1 according to respective peptides derived from FCHo1 binding sites are illustrated in FIG. 28.

Akt1 [2] = molecular target: T2, Akt1; assay: immunofluorescence and PLA, A549 cells
Experimental: A549 cells were placed in 8-well chamber cover glasses or high-precision cover glasses and were fixed with 3% paraformaldehyde for 10 minutes at room temperature, permeabilized with 0.5% Triton® X-100 (Sigma-Aldrich) for 5 min, blocked for 30 minutes. Then, the cells were incubated with primary or secondary antibodies in blocking solution (PBS with 0.1% saponin and 3% BSA). Alexa Fluor 647 conjugated anti-rabbit secondary antibody and an oxygen scavenging system (0.5 mg/ml glucose oxidase, 40 μg/ml catalase, 10% glucose, pH 7.4) were used for stochastic optical reconstruction microscopy (dSTORM) imaging. Before imaging, 30 mM mercaptoethylamine ([…]; Sigma) was added to obtain a final thiol concentration of 10-200 mM. All dSTORM and SIM images were obtained from Carl Zeiss ELYRA PS.1 (super-resolution microscopy), and all CLSM images were obtained from the Carl Zeiss LSM710 (confocal laser scanning microscope).
Immunofluorescence and PLA assays confirmed whether the F-BAR domain binds to Akt1 at the ICB and plasma membrane and FCHo1 and Akt1 interact in the midbody. […] Interaction of FCHo1 and Akt1 in the midbody was confirmed by PLA, and Calmodulin 1 was used as an ICB marker. The results are illustrated in FIG. 17.

[3] = molecular target: T1, FCHo1-C-3×DDK (full-length wild-type …); assay: co-immunoprecipitation with anti-FLAG antibody

Binder	binding result (Akt1 [1])	also measured
B1	binds	
B2		binding result (Akt1 [2]): binds
B3		binding result [3]: no binding
B4	binds	
